{"source": "paper PMC4212957", "about": "“The serodominant secreted effector protein of Salmonella, SseB, is a strong CD4 antigen containing an immunodominant epitope presented by diverse HLA class II alleles” (Immunology, 2014)", "molecules": {"B1": {"name": "SseB: Recombinant SseB protein of Salmonella, codon optimized, expressed in E. coli (protein, UniProt Q7BVH7 1-196, looked up)", "Secreted effector protein SseB": "MSSGNILWGSQNPIVFKNSFGVSNADTGSQDDLSQQNPFAEGYGVLLILLMVIQAIANNKFIEVQKNAERARNTQEKSNEMDEVIAKAAKGDAKTKEEVPEDVIKYMRDNGILIDGMTIDDYMAKYGDHGKLDKGGLQAIKAALDNDANRNTDLMSQGQITIQKMSQELNAVLTQLTGLISKWGEISSMIAQKTYS", "modifications": "recombinant, codon optimized, E. coli expressed"}}, "key": {"[1]": {"test_system": "draining lymph node cells of HLA-DR4 transgenic mice", "assay": "Murine IFN-γ ELISpot, HLA-DR4 transgenic mice primed with SseB", "conditions": "mouse, in vivo", "description": "(§1) Mice transgenic for HLA-DR1 (that is, HLA-DRA1*0101/HLA-DRB1*0101) and HLA-DR4 (that is, HLA-DRA1*0101/HLA-DRB1*0401)[24]–[26] were bred and housed in the Centre for Biological Services at the Hammersmith campus, Imperial College London, UK, in accordance with Home Office regulations and College ethics review. Both transgenic lines are maintained on a C57BL/6 background as homozygotes for knockout of murine MHC Class II H2-Aβ.[27]\n(§2) HLA-DR1 or HLA-DR4 transgenic mice were primed, by subcutaneous injection into the footpad, with 25 μg of recombinant SseB protein administered as a 1 : 1 emulsion with TiterMax® Gold (CytRx Corporation, Los Angeles, CA). Ten days after priming, popliteal draining lymph nodes were harvested and stimulated, in triplicate, at 2 × 10^5 cells per well with 25 μg of SseB peptide or recombinant protein in pre-coated murine IFN-γ ELISpot plates (2BScientific, Upper Heyford, Oxfordshire, UK). Culture medium was RPMI-1640 containing 2 mM L-glutamine, 50 U/ml penicillin G, 50 μg/ml streptomycin sulphate, 50 μM β-mercaptoethanol and 10% fetal calf serum. Cells were cultured at 37° and in 5% CO2 for 72 hr before assay development using a biotinylated anti-IFN-γ antibody, a horseradish peroxidase detection antibody and TMB substrate (2BScientific). Developed plates were left to dry before spot counting using an AID ELISpot reader (Autoimmun Diagnostika GMBH). Positive epitopes for a given transgenic line were defined as those where more than half of assayed animals gave a greater number of spot-forming cells than 2 SD over the mean of the no protein/peptide control.\n(§3) Fig 1 Definition of HLA-DR specific T-cell epitopes in DR1 and DR4 transgenic mice. (a) HLA-DR1 (n = 5) and (b) HLA-DR4 (n = 6) mice were footpad primed with ssEB protein in combination with TiterMax® Gold adjuvant. Draining lymph node (DLN) cells were assayed by ELISpot at day 10 for interferon-γ (IFN-γ) T-cell responses to ssEB peptides and protein. A peptide was defined as containing a T-cell epitope for DR1 or DR4 HLA molecules if more than half of the mice assayed gave a greater number of spot-forming cells than 2 SD over the mean of the no peptide/protein control. The 2 SD value for each transgenic line is shown by a dotted line."}, "Salmonella SL1344": {"test_system": "Salmonella SL1344", "conditions": "C57BL/6 mice, immunization with two doses; cited from earlier work", "description": "There have been a limited number of studies aimed at exploring candidates from the S. Typhi immunome for serodiagnostic, serodominant or protective credentials with respect to B-cell or T-cell immunity.[16]–[19] Some candidate antigens have been successfully deployed to induce protective immunity against challenge in mice; these antigens include OmpL, SseB, SseD and CirA.[16],[18],[19] Antigen arrays have been informative: an array of 2724 Salmonella enterica serovar Typhi antigens, selected on the basis of key terms such as ‘outer membrane’ or ‘chaperone’, representing over 63% of the proteom ..."}, "[2]": {"test_system": "draining lymph node cells of HLA-DR1 transgenic mice", "assay": "Murine IFN-γ ELISpot, HLA-DR1 transgenic mice primed with SseB", "conditions": "mouse, in vivo", "description": "as §1, §2, §3"}}, "data": [{"molecule": "B1", "values": [{"measurement": "IFN-γ ELISpot recall response / CD4 epitope in HLA-DR4 transgenic mice", "setting": "[1]", "result": "relatively large response"}, {"measurement": "protection from oral challenge (mean survival time and tissue bacterial burden)", "setting": "Salmonella SL1344", "result": "substantial protection"}, {"measurement": "IFN-γ ELISpot recall response / CD4 epitope in HLA-DR1 transgenic mice", "setting": "[2]", "result": "highly immunogenic"}]}]}
